% inhibition (mean) of KLK14 (30 nM) evoked FLIPR signal in TRPV1 cells; LEKTI D6 and % inhibition (mean) of KLK14 (30 nM) evoked FLIPR signal in TRPV4 cells; LEKTI D6 data for 1 molecule are collected here from patent US20210162029A1.

The target in the experiment is T1, KLK14 (UniProt Q9P0G3).
T1 sequence (looked up): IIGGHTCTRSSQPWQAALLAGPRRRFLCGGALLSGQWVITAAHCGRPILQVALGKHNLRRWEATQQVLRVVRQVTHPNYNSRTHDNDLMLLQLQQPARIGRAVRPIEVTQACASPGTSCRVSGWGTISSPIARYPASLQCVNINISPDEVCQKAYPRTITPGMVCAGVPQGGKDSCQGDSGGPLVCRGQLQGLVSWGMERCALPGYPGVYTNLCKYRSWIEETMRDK
In words: cell-based or functional assay.

B1: LEKTI Domain 6 (protein)
chain: ESGKATSYAELCSEYRKLVRNGKLACTRENDPIQGPDGKVHGNTCSMCEVFFQAEEEEKKKKEGKSRN
B1: the % inhibition (mean) of KLK14 (30 nM) evoked FLIPR signal in TRPV1 cells; LEKTI D6 at 0.003 µM was -4%, the % inhibition (mean) of KLK14 (30 nM) evoked FLIPR signal in TRPV1 cells; LEKTI D6 at 0.01 µM was found to be 21.6%, the % inhibition (mean) of KLK14 (30 nM) evoked FLIPR signal in TRPV1 cells; LEKTI D6 at 0.03 µM is -11.1% and the % inhibition (mean) of KLK14 (30 nM) evoked FLIPR signal in TRPV1 cells; LEKTI D6 at 0.1 µM came to 12.4%. The % inhibition (mean) of KLK14 (30 nM) evoked FLIPR signal in TRPV1 cells; LEKTI D6 at 0.3 µM stood at 16.8%, the % inhibition (mean) of KLK14 (30 nM) evoked FLIPR signal in TRPV1 cells; LEKTI D6 at 1 µM came out at 46.9%, the % inhibition (mean) of KLK14 (30 nM) evoked FLIPR signal in TRPV1 cells; LEKTI D6 at 3 µM worked out at 56.4% and the % inhibition (mean) of KLK14 (30 nM) evoked FLIPR signal in TRPV1 cells; LEKTI D6 at 10 µM came to 39.3%. Moreover, the % inhibition (mean) of KLK14 (30 nM) evoked FLIPR signal in TRPV4 cells; LEKTI D6 at 0.003 µM was -24.1%, the % inhibition (mean) of KLK14 (30 nM) evoked FLIPR signal in TRPV4 cells; LEKTI D6 at 0.01 µM is -11%, the % inhibition (mean) of KLK14 (30 nM) evoked FLIPR signal in TRPV4 cells; LEKTI D6 at 0.03 µM came out at 9.9% and the % inhibition (mean) of KLK14 (30 nM) evoked FLIPR signal in TRPV4 cells; LEKTI D6 at 0.1 µM was determined as 6.4%. The % inhibition (mean) of KLK14 (30 nM) evoked FLIPR signal in TRPV4 cells; LEKTI D6 at 0.3 µM amounted to 1.5%, the % inhibition (mean) of KLK14 (30 nM) evoked FLIPR signal in TRPV4 cells; LEKTI D6 at 1 µM came out at 6.3%, the % inhibition (mean) of KLK14 (30 nM) evoked FLIPR signal in TRPV4 cells; LEKTI D6 at 3 µM turned out to be 26.7% and the % inhibition (mean) of KLK14 (30 nM) evoked FLIPR signal in TRPV4 cells; LEKTI D6 at 10 µM is 73%.
